Experimental data reported in patent publication US20150368338A1 (Janssen / Centocor, published 2015).
Positions count from the first letter of the chain named.

B1: IFWM3328 (antibody, V domains shown)
VH: EVQLVQSGAEVKKPGESLKISCKGSGYSFTSYWIGWVRQMPGKGLEWMGIIDPSDSDTRYSPSFQGQVTISADKSISTAYLQWSSLKASDTAMYYCARHPGLNWAPDFDYWGQGTLVTVSS
VL: DIQMTQSPSSLSASVGDRVTITCRASQSINNLNWYQQKPGKAPKLLIYWASSLQSGVPSRFSGSGSGTDFTLTISSLQPEDFATYYCQQGYDTPFTFGQGTKVEIK
notes: VH IFWH591, VL IFWL1064; converted mAb; also called IFWB3063
B2: IFWM3338 (antibody, V domains shown)
VH: B1 VH
VL: DIQMTQSPSSLSASVGDRVTITCRASQSIRNTNLNWYQQKPGKAPKLLIHWASSLQSGVPSRFSGSGSGTDFTLTISSLQPEDFATYYCQQGYDTPFTFGQGTKVEIK
notes: VH IFWH591, VL IFWL1091; converted mAb; also called IFWB3073
B3: IFWM3337 (antibody, V domains shown)
VH: B1 VH
VL: B2 VL with R30S, T32S, G92W, T95H, F97L
notes: VH IFWH591, VL IFWL1087; converted mAb; also called IFWB3072
B4: IFWM3336 (antibody, V domains shown)
VH: B1 VH
VL: B2 VL with T32N, N33Y, H50Y, W51A, F97L
notes: VH IFWH591, VL IFWL1085; converted mAb; also called IFWB3071
B5: IFWM3339 (antibody, V domains shown)
VH: B1 VH
VL: B2 VL with R30A, T32N, N33D, G92D, T95W, F97L
notes: VH IFWH591, VL IFWL1093; converted mAb; also called IFWB3074
B6: IFWM3335 (antibody, V domains shown)
VH: B1 VH
VL: B1 VL with N31Y, W49G, G90S, Y91H, T93W, F95I
notes: VH IFWH591, VL IFWL1084; converted mAb; also called IFWB3070
B7: IFWM3379 (antibody, IgG1, V domains shown)
VH: B1 VH with N103A
VL: DIQMTQSPSSLSASVGDRVTITCRASQSIDGSLNWYQQKPGKAPKLLIYFASSLQSGVPSRFSGSGSGTDFTLTISSLQPEDFATYYCQQSYDFPLTFGQGTKVEIK
notes: mAb; IgG1/kappa said of the parent and of selected mAbs; also called IFWB3114
B8: IFWM3383 (antibody, IgG1, V domains shown)
VH: B1 VH with N103A
VL: B7 VL with D30S, G31K, S32F, Y92N, D93T, F94L, L96F
notes: mAb; IgG1/kappa said of the parent and of selected mAbs; also called IFWB3118
B9: IFWM3293 (antibody, IgG1, V domains shown)
VH: B1 VH with N103A
VL: B7 VL with G31E, S32F, S91A, Y92H, D93S
notes: mAb; IgG1/kappa said of the parent and of selected mAbs; also called IFWB3028
B10: IFWM3381 (antibody, IgG1, V domains shown)
VH: B1 VH with N103A
VL: B7 VL with D30G, G31S, S32F, D93S, F94I, L96I
notes: mAb; IgG1/kappa said of the parent and of selected mAbs; also called IFWB3116
B11: IFWM3387 (antibody, IgG1, V domains shown)
VH: B1 VH with N103A
VL: B7 VL with D30G, S32F, D93S, F94L, L96I
notes: mAb; IgG1/kappa said of the parent and of selected mAbs; also called IFWB3122
B12: IFWM3390 (antibody, IgG1, V domains shown)
VH: B1 VH with N103A
VL: B7 VL with S32A, Y92F
notes: mAb; IgG1/kappa said of the parent and of selected mAbs; also called IFWB3125
B13: IFWM3386 (antibody, IgG1, V domains shown)
VH: B1 VH with N103A
VL: B7 VL with D30A, G31E, S32F, Y92I
notes: mAb; IgG1/kappa said of the parent and of selected mAbs; also called IFWB3121
B14: IFWM3384 (antibody, IgG1, V domains shown)
VH: B1 VH with N103A
VL: B7 VL with D30T, G31N, S32F, Y92L
notes: mAb; IgG1/kappa said of the parent and of selected mAbs; also called IFWB3119
B15: IFWM3389 (antibody, IgG1, V domains shown)
VH: B1 VH with N103A
VL: B7 VL with G31D, S32F, Y92H, D93T, F94L
notes: mAb; IgG1/kappa said of the parent and of selected mAbs; also called IFWB3124
B16: IFWM3401 (antibody, IgG1, V domains shown)
VH: B1 VH with N103A
VL: B7 VL with D30T, G31N, S32H, S91A, Y92H, D93N
notes: mAb; IgG1/kappa said of the parent and of selected mAbs; also called IFWB3136
B17: IFWM3382 (antibody, IgG1, V domains shown)
VH: B1 VH with N103A
VL: B7 VL with D30G, G31S, S32A
notes: mAb; IgG1/kappa said of the parent and of selected mAbs; also called IFWB3117
B18: IFWM3380 (antibody, IgG1, V domains shown)
VH: B1 VH with N103A
VL: B7 VL with D30N, G31R, S32F, F50A, S91A, Y92I, F94L, L96F
notes: mAb; IgG1/kappa said of the parent and of selected mAbs; also called IFWB3115
B19: IFWM3391 (antibody, IgG1, V domains shown)
VH: B1 VH with N103A
VL: B7 VL with D30N, G31N, S32F, Y92F, D93N, F94L, L96I
notes: mAb; IgG1/kappa said of the parent and of selected mAbs; also called IFWB3126
B20: IFWM3388 (antibody, IgG1, V domains shown)
VH: B1 VH with N103A
VL: B7 VL with D30G, G31K
notes: mAb; IgG1/kappa said of the parent and of selected mAbs; also called IFWB3123

Molecular target: T1, human IFN-ω (human, UniProt P05000 24-195)
T1 construct: also called interferon omega
Experiment: ProteOn, one antigen concentration
Description: (§1) To increase the assay throughput, only one concentration of the individual antigen was used.

| Binder | Kd [nM] |
| --- | --- |
| B1 | 0.108 |
| B2 | 0.057 |
| B3 | 0.02 |
| B4 | 0.019 |
| B5 | 0.049 |
| B6 | 0.042 |

Molecular target: T2, IFN-αWA (human, UniProt P05015 24-189)
T2 construct: also called IFN-α16; alpha WA
Experiment: ProteOn, one antigen concentration
Description: as §1

| Binder | Kd [nM] |
| --- | --- |
| B1 | 0.207 |
| B2 | 0.2 |
| B3 | 0.037 |
| B4 | 0.105 |
| B5 | 0.141 |
| B6 | 0.137 |

Molecular target: T3, IFN-αF (human, UniProt P01568 24-189)
T3 construct: also called IFN-α21; alpha F
T3 chain: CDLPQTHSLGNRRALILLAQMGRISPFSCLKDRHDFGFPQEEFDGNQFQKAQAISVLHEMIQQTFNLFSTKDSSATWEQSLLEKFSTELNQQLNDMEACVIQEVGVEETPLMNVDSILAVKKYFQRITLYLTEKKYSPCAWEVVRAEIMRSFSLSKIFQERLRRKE
Experiment: ProteOn, one antigen concentration
Description: as §1

| Binder | Kd [nM] |
| --- | --- |
| B1 | 0.091 |
| B2 | 0.064 |
| B3 | 0.016 |
| B4 | 0.061 |
| B5 | 0.065 |
| B6 | 0.061 |

Molecular target: T4, IFN-α4a (human, UniProt P05014 24-189)
T4 construct: also called IFN-αM1
Experiment: ProteOn, one antigen concentration
Description: as §1

| Binder | Kd [nM] |
| --- | --- |
| B1 | 0.41 |
| B2 | 0.319 |
| B3 | 0.091 |
| B4 | 0.235 |
| B5 | 0.235 |
| B6 | 0.336 |

Molecular target: T5, IFN-αJ1 (human, UniProt P01567 24-189)
T5 construct: also called IFN-α7; alpha J1
Experiment: ProteOn, one antigen concentration
Description: as §1

| Binder | Kd [nM] |
| --- | --- |
| B1 | 0.36 |
| B2 | 0.245 |
| B3 | 0.071 |
| B4 | 0.11 |
| B5 | 0.161 |
| B6 | 0.245 |

Molecular target: T6, IFN-αC (human, UniProt P01566 24-189)
T6 construct: also called IFN-α10; alpha C
Experiment: ProteOn, one antigen concentration
Description: as §1

| Binder | Kd [nM] |
| --- | --- |
| B1 | 0.099 |
| B2 | 0.046 |
| B3 | 0.017 |
| B4 | 0.047 |
| B5 | 0.059 |
| B6 | 0.049 |

Molecular target: T7, IFN-αG (human, UniProt P01569 24-189)
T7 construct: also called IFN-α5; alpha G
Experiment: ProteOn, one antigen concentration
Description: as §1

| Binder | Kd [nM] |
| --- | --- |
| B1 | 0.072 |
| B2 | 0.046 |
| B3 | 0.034 |
| B4 | 0.051 |
| B5 | 0.079 |
| B6 | 0.077 |

Molecular target: T8, human IFN-ω (human, UniProt P05000 24-195)
T8 construct: Recombinant, HEK293; also called interferon omega
Experiment: ProteOn SPR, cell supernatant;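 further: each binding measurement used just a single antigen concentration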
Description: as §1

| Binder | Kd [nM] |
| --- | --- |
| B7 | 0.015 |
| B8 | 0.028 |
| B9 | 0.029 |
| B10 | 0.045 |
| B11 | 0.039 |
| B12 | 0.01 |
| B13 | 0.026 |
| B14 | 0.026 |
| B15 | 0.017 |
| B16 | 0.062 |
| B17 | 0.03 |
| B18 | 0.025 |
| B19 | 0.023 |
| B20 | 0.033 |

Molecular target: T9, IFN-αG (human, UniProt P01569 24-189)
T9 construct: Recombinant, HEK293; also called IFN-α5
Experiment: ProteOn SPR, cell supernatant;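 further: each binding measurement used just a single antigen concentration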
Description: as §1

| Binder | Kd [nM] |
| --- | --- |
| B7 | 0.013 |
| B8 | 0.084 |
| B9 | 0.037 |
| B10 | 0.053 |
| B11 | 0.034 |
| B12 | 0.01 |
| B13 | 0.026 |
| B14 | 0.022 |
| B15 | 0.033 |
| B16 | 0.067 |
| B17 | 0.03 |
| B18 | 0.07 |
| B19 | 0.044 |
| B20 | 0.027 |

Molecular target: T10, IFN-α4a (human, UniProt P05014 24-189)
T10 construct: Recombinant, HEK293; also called IFN-αM1
Experiment: ProteOn SPR, cell supernatant;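 further: each binding measurement used just a single antigen concentration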
Description: as §1

| Binder | Kd [nM] |
| --- | --- |
| B7 | 0.072 |
| B8 | 0.143 |
| B9 | 0.166 |
| B10 | 0.171 |
| B11 | 0.169 |
| B12 | 0.075 |
| B13 | 0.103 |
| B14 | 0.077 |
| B15 | 0.098 |
| B16 | 0.195 |
| B17 | 0.075 |
| B18 | 0.088 |
| B19 | 0.117 |
| B20 | 0.084 |

Molecular target: T11, IFN-αJ1 (human, UniProt P01567 24-189)
T11 construct: Recombinant, HEK293; also called IFN-α7
Experiment: ProteOn SPR, cell supernatant;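 further: each binding measurement used just a single antigen concentration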
Description: as §1

| Binder | Kd [nM] |
| --- | --- |
| B7 | 0.033 |
| B8 | 0.086 |
| B9 | 0.062 |
| B10 | 0.121 |
| B11 | 0.161 |
| B12 | 0.03 |
| B13 | 0.087 |
| B14 | 0.068 |
| B15 | 0.032 |
| B16 | 0.078 |
| B17 | 0.037 |
| B18 | 0.076 |
| B19 | 0.066 |
| B20 | 0.055 |

Molecular target: T12, IFN-αF (human, UniProt P01568 24-189)
T12 construct: Recombinant, HEK293; also called IFN-α21
T12 chain: T3 chain
Experiment: ProteOn SPR, cell supernatant;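 further: each binding measurement used just a single antigen concentration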
Description: as §1

| Binder | Kd [nM] |
| --- | --- |
| B7 | 0.013 |
| B8 | 0.06 |
| B9 | 0.017 |
| B10 | 0.092 |
| B11 | 0.058 |
| B12 | 0.011 |
| B13 | 0.029 |
| B14 | 0.033 |
| B15 | 0.009 |
| B16 | 0.028 |
| B17 | 0.02 |
| B18 | 0.032 |
| B19 | 0.025 |
| B20 | 0.019 |

Molecular target: T13, IFN-αC (human, UniProt P01566 24-189)
T13 construct: Recombinant, HEK293; also called IFN-α10
Experiment: ProteOn SPR, cell supernatant;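 further: each binding measurement used just a single antigen concentration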
Description: as §1

| Binder | Kd [nM] |
| --- | --- |
| B7 | 0.013 |
| B8 | 0.069 |
| B9 | 0.025 |
| B10 | 0.079 |
| B11 | 0.09 |
| B12 | 0.011 |
| B13 | 0.031 |
| B14 | 0.029 |
| B15 | 0.024 |
| B17 | 0.024 |
| B18 | 0.046 |
| B19 | 0.016 |
| B20 | 0.03 |

Molecular target: T14, IFN-αWA (human, UniProt P05015 24-189)
T14 construct: Recombinant, HEK293; also called IFN-α16
Experiment: ProteOn SPR, cell supernatant
Description: as §1

| Binder | Kd [nM] |
| --- | --- |
| B7 | 0.023 |
| B8 | 0.064 |
| B9 | 0.046 |
| B10 | 0.067 |
| B11 | 0.069 |
| B12 | 0.029 |
| B13 | 0.035 |
| B14 | 0.017 |
| B15 | 0.03 |
| B16 | 0.076 |
| B17 | 0.032 |
| B18 | 0.059 |
| B19 | 0.042 |
| B20 | 0.044 |
